Tests used:
Conditions in all cases: both partners purified
[1] = target: T1, linear tetra-ubiquitin (Ub4), M1-linked (UniProt P0CG48 1-76; P0CG48 1-76; P0CG48 1-76; P0CG48 1-76); experiment: SEC; Superose6 Increase 10/300 GL; 25 mM Tris–HCl pH 8.0, 250 mM NaCl, 2 mM DTT, 5% glycerol; 0.2 ml/min, 22 °C; peak fractions on Coomassie-stained SDS-PAGE
T1 construct: ubiquitin, copy 1 of four moieties covalently linked N-terminal to C-terminal on one chain (M1 linked); ubiquitin, copy 2 of four; ubiquitin, copy 3 of four; ubiquitin, copy 4 of four; also called linear poly-Ub; methionine-linked Ub4 chain; source: recombinant (pET24d construct), purified; not shown: His6, N-terminal, kept

[2] = target: T1, linear tetra-ubiquitin (Ub4), M1-linked; experiment: pull-down; Ub4 recovered with GST-NEMO^241–419 from mixtures with HA-IKK2 HEK293T lysate, with or without TAT peptides (200–25 μM), 2 h at 4 °C; Western blot
[3] = target: T1, linear tetra-ubiquitin (Ub4), M1-linked; experiment: pull-down; purified GST-NEMO fusions mixed with purified IKK proteins in the presence of Ub4, 1 h at 4 °C, then glutathione–agarose beads 2 h at 4 °C; 25 mM Tris–HCl pH 7.5, 150 mM NaCl, 1 mM EDTA, 0.5% NP-40, 0.55% Triton X-100, 5% glycerol, 1 mM DTT; four washes; Western blot

T1 sequence (P0CG48 1-304, one chain of several): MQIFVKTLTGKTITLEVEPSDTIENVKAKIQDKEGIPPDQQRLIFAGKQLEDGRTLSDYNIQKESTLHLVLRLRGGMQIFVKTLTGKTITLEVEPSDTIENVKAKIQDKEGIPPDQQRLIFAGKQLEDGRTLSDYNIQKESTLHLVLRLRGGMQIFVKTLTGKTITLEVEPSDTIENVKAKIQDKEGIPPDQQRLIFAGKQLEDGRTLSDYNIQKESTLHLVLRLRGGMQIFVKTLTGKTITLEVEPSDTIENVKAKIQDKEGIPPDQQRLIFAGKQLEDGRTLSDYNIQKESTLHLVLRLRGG

binding result [1] | other results | Binder
binds | – | GST-NEMO^241–350 (domain or fragment, human, UniProt Q9Y6K9 241-350, looked up, source: E. coli Rosetta (DE3), purified (glutathione–agarose); not shown: GST, N-terminal, kept) YDNHIKSSVVGSERKRGMQLEDLKQQLQQAEEALVAKQEVIDKLKEEAEQHKIVMETVPVLKAQADIYKADFQAERQAREKLAEKKELLQEQLEQLQREYSKLKASCQES
binds | – | GST-NEMO^241–383 (domain or fragment, human, UniProt Q9Y6K9 241-383, looked up, source: E. coli Rosetta (DE3), purified (glutathione–agarose); not shown: GST, N-terminal, kept) YDNHIKSSVVGSERKRGMQLEDLKQQLQQAEEALVAKQEVIDKLKEEAEQHKIVMETVPVLKAQADIYKADFQAERQAREKLAEKKELLQEQLEQLQREYSKLKASCQESARIEDMRKRHVEVSQAPLPPAPAYLSSPLALPS
– | binding result [2]: binds | GST-NEMO^241–419 (domain or fragment, human, UniProt Q9Y6K9 241-419, looked up, also called CC2-ZF; source: E. coli Rosetta (DE3), purified (glutathione–agarose); not shown: GST, N-terminal, kept) YDNHIKSSVVGSERKRGMQLEDLKQQLQQAEEALVAKQEVIDKLKEEAEQHKIVMETVPVLKAQADIYKADFQAERQAREKLAEKKELLQEQLEQLQREYSKLKASCQESARIEDMRKRHVEVSQAPLPPAPAYLSSPLALPSQRRSPPEEPPDFCCPKCQYQAPDMDTLQIHVMECIE
– | binding result [3]: binds | GST-NEMO^111–419 (domain or fragment, human, UniProt Q9Y6K9 111-419, looked up, also called truncated NEMO (lacking the KBD); source: E. coli Rosetta (DE3), purified (glutathione–agarose); not shown: GST, N-terminal, kept) KLDLKRQKEQALREVEHLKRCQQQMAEDKASVKAQVTSLLGELQESQSRLEAATKECQALEGRARAASEQARQLESEREALQQQHSVQVDQLRMQGQSVEAALRMERQAASEEKRKLAQLQVAYHQLFQEYDNHIKSSVVGSERKRGMQLEDLKQQLQQAEEALVAKQEVIDKLKEEAEQHKIVMETVPVLKAQADIYKADFQAERQAREKLAEKKELLQEQLEQLQREYSKLKASCQESARIEDMRKRHVEVSQAPLPPAPAYLSSPLALPSQRRSPPEEPPDFCCPKCQYQAPDMDTLQIHVMECIE
binds | – | GST-NEMO^241–375 (domain or fragment, human, UniProt Q9Y6K9 241-375, looked up, source: E. coli Rosetta (DE3), purified (glutathione–agarose); not shown: GST, N-terminal, kept) YDNHIKSSVVGSERKRGMQLEDLKQQLQQAEEALVAKQEVIDKLKEEAEQHKIVMETVPVLKAQADIYKADFQAERQAREKLAEKKELLQEQLEQLQREYSKLKASCQESARIEDMRKRHVEVSQAPLPPAPAYL
binds | – | GST-NEMO^241–390 (domain or fragment, human, UniProt Q9Y6K9 241-390, looked up, source: E. coli Rosetta (DE3), purified (glutathione–agarose); not shown: GST, N-terminal, kept) YDNHIKSSVVGSERKRGMQLEDLKQQLQQAEEALVAKQEVIDKLKEEAEQHKIVMETVPVLKAQADIYKADFQAERQAREKLAEKKELLQEQLEQLQREYSKLKASCQESARIEDMRKRHVEVSQAPLPPAPAYLSSPLALPSQRRSPPE

Reference: publication PMC9035715, “Regulatory subunit NEMO promotes polyubiquitin-dependent induction of NF-κB through a targetable second interaction with upstream activator IKK2” (The Journal of Biological Chemistry, 2022)
